Measurements as given in patent US20260240820A1, “METHOD FOR CONTROLLING MEMBRANE POTENTIAL-DEPENDENT ION CHANNEL THROUGH TYPE I TASTE RECEPTORS (T1RS)” (ION CHAT RESEARCH CORPORATE, priority 2022, published 2026).
“Also recorded” adds a separate entry of the source. Where two headings read alike, the source gives them in different places.

Test system: Nav1.6
Experiment: Patch-clamp recording of VGSC current in HEK (Nav1.6) cells
Assay type: cell-based, human

B1: Thaumatin: sweet-tasting protein binding to the CRD of T1R3 (protein)
chain: ATFEIVNRCSYTVWAAASKGDAALDAGGRQLNSGESWTINVEPGTNGGKIWARTDCYFDDSGSGICKTGDCGGLLRCKRFGRPPTTLAEFSLNQYGKDYIDISNIKGFNVPMDFSPTTRGCRGVRCAADIVGQCPAKLKAPGGGCNDACTVFQTSEYCCTTGKCGPTEYSRFFKRLCPDAFSYVLDKPTTVTCPGSSNYRVTFCPTA
  Effect on VGSC current, alone: amplified VGSC currents similarly to Aβ1-42
Listed as thaumatin
  Effect on VGSC current when applied after Aβ1-42: further amplification of VGSC currents was not observed; also recorded: no further amplification
  Effect on VGSC current, alone: similarly amplified VGSC currents as Aβ1-42
